# Measurements as given in FireProtDB (doi:10.1002/prot.340220405).
# B1: Chemotaxis protein CheY wild type, P0AE67 (protein)
# chain: MADKELKFLVVDDFSTMRRIVRNLLKELGFNNVEEAEDGVDALNKLQAGGYGFVISDWNMPNMDGLELLKTIRADGAMSALPVLMVTAEAKKENIIAAAQAGASGYVVKPFTAATLEEKLNKIFEKLGM
# Settings: Escherichia coli (strain K12); pH 8; 25 °C; Urea; CD; Na-PIPES 50 mM; reversible: yes; whole UniProt chain shown
protein,measurement,value
B1,denaturant m value,1.6 kcal/mol/M
same,denaturant midpoint (higher = more stable),3.5 M
same,unfolding free energy,23.4 kJ/mol
